The chains are these.
B1: "Lethal(3)malignant brain tumor-like protein 1" (Homo sapiens), Q9Y468 (parent)
chain: MHLVAGDSPGSGPHLPATAFIIPASSATLGLPSSALDVSCFPREPIHVGAPEQVAGCEPVSATVLPQLSAGPASSSTSTVRLLEWTEAAAPPPGGGLRFRISEYKPLNMAGVEQPPSPELRQEGVTEYEDGGAPAGDGEAGPQQAEDHPQNPPEDPNQDPPEDDSTCQCQACGPHQAAGPDLGSSNDGCPQLFQERSVIVENSSGSTSASELLKPMKKRKRREYQSPSEEESEPEAMEKQEEGKDPEGQPTASTPESEEWSSSQPATGEKKECWSWESYLEEQKAITAPVSLFQDSQAVTHNKNGFKLGMKLEGIDPQHPSMYFILTVAEVCGYRLRLHFDGYSECHDFWVNANSPDIHPAGWFEKTGHKLQPPKGYKEEEFSWSQYLRSTRAQAAPKHLFVSQSHSPPPLGFQVGMKLEAVDRMNPSLVCVASVTDVVDSRFLVHFDNWDDTYDYWCDPSSPYIHPVGWCQKQGKPLTPPQDYPDPDNFCWEKYLEETGASAVPTWAFKVRPPHSFLVNMKLEAVDRRNPALIRVASVEDVEDHRIKIHFDGWSHGYDFWIDADHPDIHPAGWCSKTGHPLQPPLGPREPSSASPGGCPPLSYRSLPHTRTSKYSFHHRKCPTPGCDGSGHVTGKFTAHHCLSGCPLAERNQSRLKAELSDSEASARKKNLSGFSPRKKPRHHGRIGRPPKYRKIPQEDFQTLTPDVVHQSLFMSALSAHPDRSLSVCWEQHCKLLPGVAGISASTVAKWTIDEVFGFVQTLTGCEDQARLFKDEARIVRVTHVSGKTLVWTVAQLGDLVCSDHLQEGKGILETGVHSLLCSLPTHLLAKLSFASDSQY

One assay covers variants of B1. The settings on record: with h14_human H1-4, P10412.
h14_human H1-4, P10412, sequence (P10412 whole entry): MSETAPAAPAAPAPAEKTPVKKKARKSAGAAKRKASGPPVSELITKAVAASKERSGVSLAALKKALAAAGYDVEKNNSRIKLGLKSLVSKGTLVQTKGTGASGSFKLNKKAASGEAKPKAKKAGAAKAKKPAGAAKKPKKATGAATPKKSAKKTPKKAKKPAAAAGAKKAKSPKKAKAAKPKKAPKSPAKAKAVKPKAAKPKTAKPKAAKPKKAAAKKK
As for F447A, the “effect of a mutation on the interaction” value is on record as “decreasing interaction”.

The variants in the next assay derive from B1. The conditions noted are these: with h14_human H1-4, P10412. This is another data set of the same source.
Consider D423N, for which the “effect of a mutation on the interaction” value is “decreasing interaction”.

Another assay covers variants of B1. The conditions noted are these: with h4_human H4C16, P62805.
Regarding D423N, the “effect of a mutation on the interaction” value is recorded as “decreasing interaction”.
